Source: article doi:10.1101/2025.09.08.674988

Legend:
[1] = target: FlAsH-labeled NS5B(Δ21)-FlAsH-His (Hepatitis C virus genotype 2a); experiment: FRAP on a supported lipid bilayer
dynamic light scattering = details: other: dynamic light scattering
[2] = target: FlAsH-labeled NS5B(Δ21)-FlAsH-His (Hepatitis C virus genotype 2a); experiment: fluorescence polarisation
[3] = target: FlAsH-labeled NS5B(Δ21)-FlAsH-His (Hepatitis C virus genotype 2a); experiment: fluorescence polarisation; remark: listed apart in the source
[4] = target: NS5B(Δ21)-FlAsH-His (Hepatitis C virus genotype 2a); experiment: dynamic light scattering
[5] = target: FlAsH-labeled NS5B(Δ21)-FlAsH-His (Hepatitis C virus genotype 2a); experiment: fluorescence polarisation; remark: listed apart in the source

## FlAsH-labeled NS5B(Δ21)-FlAsH-His (enzyme)
[1]
  Kd: < 10 nM

## NS5B(Δ21)-FlAsH-His
Dynamic light scattering
  K0.5: K0.5 ∼ 1.5 µM

## NS5B(Δ21)-FlAsH-His (enzyme)
[2]
  Kd: 560 nM
[3]
  Kd: 1100 nM
[4]
  Kd: 750 nM
[5]
  Kd: 1000 nM
